Numbered stars: 1 amine (or outer) side, 2 acyl side, 3 side chain; on linkers, the order of the positions; unused ones are H or OH. Square brackets hold non-standard residues; d marks the D form. Side chains are listed from the residue outwards. Ends that are not written are not given here. * marks the point of attachment. C20 diacid = O=C(O)CCCCCCCCCCCCCCCCCCC(=O)*; γGlu = O=C(O)[C@H](CCC(=O)[*:2])N[*:1]; AEEA = NCCOCCOCC(=O)O; Aib = CC(C)(N)C(=O)O
Tests used:
[1] = target: human secretin receptor (hSCTR) (human, UniProt P47872 23-440); experiment: cell-based or functional assay
Chain of human secretin receptor (hSCTR) (P47872 23-440): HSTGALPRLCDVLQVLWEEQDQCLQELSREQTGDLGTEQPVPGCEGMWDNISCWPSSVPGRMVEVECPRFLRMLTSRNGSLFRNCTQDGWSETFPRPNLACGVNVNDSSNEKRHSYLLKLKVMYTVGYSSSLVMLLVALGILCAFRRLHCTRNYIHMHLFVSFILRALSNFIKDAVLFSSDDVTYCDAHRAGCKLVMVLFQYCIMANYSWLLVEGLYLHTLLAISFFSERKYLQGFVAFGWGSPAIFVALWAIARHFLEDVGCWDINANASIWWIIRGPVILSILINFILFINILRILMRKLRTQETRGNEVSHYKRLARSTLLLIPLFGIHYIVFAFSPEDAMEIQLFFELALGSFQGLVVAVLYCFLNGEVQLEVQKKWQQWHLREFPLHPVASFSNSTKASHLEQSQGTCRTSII

[2] = target: human GLP-1 receptor (hGLP1R) (human, UniProt P43220 24-463); experiment: cell-based or functional assay

Binder: H[Aib]EGTFTSDVSYLK([AEEA-AEEA-γGlu-C20 diacid])EFAASQRFLEHLV-NH2 [SEQ ID NO: 66]
- pEC50 hSCTR [1]: 5.5 -log M
- pEC50 hGLPR1 [2]: 10.4 -log M

Binder: H[Aib]EGTFTSDVSYLK([AEEA-AEEA-γGlu-C20 diacid])ETAAEQRFLEHLV-NH2 [SEQ ID NO: 69]
- pEC50 hSCTR [1]: 4.8 -log M
- pEC50 hGLPR1 [2]: 10.8 -log M

Binder: H[Aib]EGTFTSDVSELK([AEEA-AEEA-γGlu-C20 diacid])EFAASQRFLEHLV-NH2 [SEQ ID NO: 8]
- pEC50 hSCTR [1]: 5.8 -log M
- pEC50 hGLPR1 [2]: 10.3 -log M

Binder: H[Aib]EGTFTSDVSRLK([AEEA-AEEA-γGlu-C20 diacid])E[Aib]AAAQRFLEHLV-NH2 [SEQ ID NO: 81]
- pEC50 hSCTR [1]: 7.1 -log M
- pEC50 hGLPR1 [2]: 10.1 -log M

Binder: H[Aib]EGTFTSDVSFLK([AEEA-AEEA-γGlu-C20 diacid])EFAASQRFLEHLV-NH2 [SEQ ID NO: 91]
- pEC50 hSCTR [1]: 4.5 -log M
- pEC50 hGLPR1 [2]: 9.5 -log M

Binder: H[Aib]EGTFTSDVSRLK([AEEA-AEEA-γGlu-C20 diacid])ELAAAQRFLEHLV-NH2 [SEQ ID NO: 9]
- pEC50 hSCTR [1]: 6 -log M
- pEC50 hGLPR1 [2]: 10.2 -log M

Binder: H[Aib]EGTFTSDVSFLK([AEEA-AEEA-γGlu-C20 diacid])E[Aib]AASQRFLEHLV-NH2 [SEQ ID NO: 74]
- pEC50 hSCTR [1]: 4.9 -log M
- pEC50 hGLPR1 [2]: 10.2 -log M

Binder: H[Aib]EGTFTSDVSTLK([AEEA-AEEA-γGlu-C20 diacid])E[Aib]AAQQRFLEHLV-NH2 [SEQ ID NO: 88]
- pEC50 hSCTR [1]: 6.8 -log M
- pEC50 hGLPR1 [2]: 11.4 -log M

Binder: H[Aib]EGTFTSDVSVLK([AEEA-AEEA-γGlu-C20 diacid])ETAAAQRFLEHLV-NH2 [SEQ ID NO: 62]
- pEC50 hSCTR [1]: 5.7 -log M
- pEC50 hGLPR1 [2]: 10 -log M

Binder: H[Aib]EGTFTSDVSYLK([AEEA-AEEA-γGlu-C20 diacid])ETAAQQRFLEHLV-NH2 [SEQ ID NO: 58]
- pEC50 hSCTR [1]: 6 -log M
- pEC50 hGLPR1 [2]: 10.6 -log M

Binder: H[Aib]EGTFTSDVSRLK([AEEA-AEEA-γGlu-C20 diacid])EEAATQRFLEHLV-NH2 [SEQ ID NO: 65]
- pEC50 hSCTR [1]: 7.6 -log M
- pEC50 hGLPR1 [2]: 11.5 -log M

Binder: H[Aib]EGTFTSDVSELK([AEEA-AEEA-γGlu-C20 diacid])E[Aib]AATQRFLEHLV-NH2 [SEQ ID NO: 82]
- pEC50 hSCTR [1]: 7 -log M
- pEC50 hGLPR1 [2]: 11 -log M

Binder: H[Aib]EGTFTSDVSYLK([AEEA-AEEA-γGlu-C20 diacid])ELAAAQRFLEHLV-NH2 [SEQ ID NO: 86]
- pEC50 hSCTR [1]: 5.4 -log M
- pEC50 hGLPR1 [2]: 9.7 -log M

Binder: H[Aib]EGTFTSDVSRLK([AEEA-AEEA-γGlu-C20 diacid])EEAAAQRFLEHLV-NH2 [SEQ ID NO: 60]
- pEC50 hSCTR [1]: 6.6 -log M
- pEC50 hGLPR1 [2]: 10.5 -log M

Binder: H[Aib]EGTFTSDVSTLK([AEEA-AEEA-γGlu-C20 diacid])ELAATQRFLEHLV-NH2 [SEQ ID NO: 67]
- pEC50 hSCTR [1]: 6.4 -log M
- pEC50 hGLPR1 [2]: 10.3 -log M

Binder: H[Aib]EGTFTSDVSVLK([AEEA-AEEA-γGlu-C20 diacid])EFAASQRFLEHLV-NH2 [SEQ ID NO: 92]
- pEC50 hSCTR [1]: 5.8 -log M
- pEC50 hGLPR1 [2]: 10.1 -log M

Binder: H[Aib]EGTFTSDVSYLK([AEEA-AEEA-γGlu-C20 diacid])EEAAAQRFLEHLV-NH2 [SEQ ID NO: 61]
- pEC50 hSCTR [1]: 6.1 -log M
- pEC50 hGLPR1 [2]: 10.9 -log M

Binder: H[Aib]EGTFTSDVSFLK([AEEA-AEEA-γGlu-C20 diacid])ETAATQRFLEHLV-NH2 [SEQ ID NO: 70]
- pEC50 hSCTR [1]: 7 -log M
- pEC50 hGLPR1 [2]: 10.7 -log M

Binder: H[Aib]EGTFTSDVSRLK([AEEA-AEEA-γGlu-C20 diacid])EFAAEQRFLEHLV-NH2 [SEQ ID NO: 72]
- pEC50 hSCTR [1]: 6 -log M
- pEC50 hGLPR1 [2]: 10 -log M

Binder: H[Aib]EGTFTSDVSRLK([AEEA-AEEA-γGlu-C20 diacid])EEAAQQRFLEHLV-NH2 [SEQ ID NO: 73]
- pEC50 hSCTR [1]: 7.1 -log M
- pEC50 hGLPR1 [2]: 11.2 -log M

Binder: H[Aib]EGTFTSDVSELK([AEEA-AEEA-γGlu-C20 diacid])ELAATQRFLEHLV-NH2 [SEQ ID NO: 80]
- pEC50 hSCTR [1]: 6.1 -log M
- pEC50 hGLPR1 [2]: 10.7 -log M

Binder: H[Aib]EGTFTSDVSYLKEEAAEQRFLEHLV-NH2 (not fully specified (residue 14)) [SEQ ID NO: 95]
- pEC50 hSCTR [1]: 4.8 -log M
- pEC50 hGLPR1 [2]: 10.7 -log M

Binder: H[Aib]EGTFTSDVSFLK([AEEA-AEEA-γGlu-C20 diacid])EEAAAQRFLEHLV-NH2 [SEQ ID NO: 63]
- pEC50 hSCTR [1]: 5 -log M
- pEC50 hGLPR1 [2]: 10.3 -log M

Binder: H[Aib]EGTFTSDVSTLK([AEEA-AEEA-γGlu-C20 diacid])EEAA[Aib]QRFLEHLV-NH2 [SEQ ID NO: 77]
- pEC50 hSCTR [1]: 5.8 -log M
- pEC50 hGLPR1 [2]: 10.7 -log M

Binder: H[Aib]EGTFTSDVSVLK([AEEA-AEEA-γGlu-C20 diacid])EEAAQQRFLEHLV-NH2 [SEQ ID NO: 90]
- pEC50 hSCTR [1]: 5.8 -log M
- pEC50 hGLPR1 [2]: 10.5 -log M

Binder: H[Aib]EGTFTSDVSYLK([AEEA-AEEA-γGlu-C20 diacid])EFAAQQRFLEHLV-NH2 [SEQ ID NO: 76]
- pEC50 hSCTR [1]: 5 -log M
- pEC50 hGLPR1 [2]: 10.1 -log M

Binder: H[Aib]EGTFTSDVSFLK([AEEA-AEEA-γGlu-C20 diacid])EFAAAQRFLEHLV-NH2 [SEQ ID NO: 84]
- pEC50 hSCTR [1]: 5.4 -log M
- pEC50 hGLPR1 [2]: 10.1 -log M

Binder: H[Aib]EGTFTSDVSTLK([AEEA-AEEA-γGlu-C20 diacid])EFAAEQRFLEHLV-NH2 [SEQ ID NO: 89]
- pEC50 hSCTR [1]: 5.7 -log M
- pEC50 hGLPR1 [2]: 10.7 -log M

Binder: H[Aib]EGTFTSDVSRLK([AEEA-AEEA-γGlu-C20 diacid])E[Aib]AA[Aib]QRFLEHLV-NH2 [SEQ ID NO: 64]
- pEC50 hSCTR [1]: 6.5 -log M
- pEC50 hGLPR1 [2]: 10.2 -log M

Binder: H[Aib]EGTFTSDVSRLK([AEEA-AEEA-γGlu-C20 diacid])ETAASQRFLEHLV-NH2 [SEQ ID NO: 71]
- pEC50 hSCTR [1]: 6 -log M
- pEC50 hGLPR1 [2]: 10.2 -log M

Binder: H[Aib]EGTFTSDVSFLK([AEEA-AEEA-γGlu-C20 diacid])EEAAQQRFLEHLV-NH2 [SEQ ID NO: 83]
- pEC50 hSCTR [1]: 5.8 -log M
- pEC50 hGLPR1 [2]: 10.5 -log M

Binder: H[Aib]EGTFTSDVSELK([AEEA-AEEA-γGlu-C20 diacid])EEAASQRFLEHLV-NH2 [SEQ ID NO: 87]
- pEC50 hSCTR [1]: 5.8 -log M
- pEC50 hGLPR1 [2]: 10.4 -log M

Binder: H[Aib]EGTFTSDVSRLK([AEEA-AEEA-γGlu-C20 diacid])E[Aib]AASQRFLEHLV-NH2 [SEQ ID NO: 59]
- pEC50 hSCTR [1]: 6.9 -log M
- pEC50 hGLPR1 [2]: 10.5 -log M

Binder: H[Aib]EGTFTSDVSTLK([AEEA-AEEA-γGlu-C20 diacid])ETAATQRFLEHLV-NH2 (not fully specified) [SEQ ID NO: 93]
- pEC50 hSCTR [1]: 6.5 -log M
- pEC50 hGLPR1 [2]: 11 -log M

Binder: H[Aib]EGTFTSDVSRLK([AEEA-AEEA-γGlu-C20 diacid])ETAA[Aib]QRFLEHLV-NH2 [SEQ ID NO: 85]
- pEC50 hSCTR [1]: 5.8 -log M
- pEC50 hGLPR1 [2]: 9.9 -log M

Binder: H[Aib]EGTFTSDVSTLK([AEEA-AEEA-γGlu-C20 diacid])ELAA[Aib]QRFLEHLV-NH2 [SEQ ID NO: 79]
- pEC50 hSCTR [1]: 5.5 -log M
- pEC50 hGLPR1 [2]: 10 -log M

Binder: H[Aib]EGTFTSDVSTLK([AEEA-AEEA-γGlu-C20 diacid])ELAAEQRFLEHLV-NH2 [SEQ ID NO: 78]
- pEC50 hSCTR [1]: 5.4 -log M
- pEC50 hGLPR1 [2]: 10.3 -log M

Binder: H[Aib]EGTFTSDVSELK([AEEA-AEEA-γGlu-C20 diacid])E[Aib]AA[Aib]QRFLEHLV-NH2 [SEQ ID NO: 7]
- pEC50 hSCTR [1]: 6 -log M
- pEC50 hGLPR1 [2]: 10.2 -log M

Binder: H[Aib]EGTFTSDVSYLKE[Aib]AAQQRFLEHLV-NH2 (not fully specified (residue 14)) [SEQ ID NO: 94]
- pEC50 hSCTR [1]: 6 -log M
- pEC50 hGLPR1 [2]: 11 -log M

Binder: H[Aib]EGTFTSDVSYLK([AEEA-AEEA-γGlu-C20 diacid])EEAASQRFLEHLV-NH2 [SEQ ID NO: 75]
- pEC50 hSCTR [1]: 5.5 -log M
- pEC50 hGLPR1 [2]: 10.6 -log M

Binder: H[Aib]EGTFTSDVSRLK([AEEA-AEEA-γGlu-C20 diacid])EFAA[Aib]QRFLEHLV-NH2 [SEQ ID NO: 68]
- pEC50 hSCTR [1]: 5.9 -log M
- pEC50 hGLPR1 [2]: 10 -log M

— patent US20260201008A1, “SECRETIN-DERIVED GLP1R SELECTIVE AGONISTS” (GUBRA A/S, priority 2023, published 2026)
